{"source": "paper PMC11812572", "about": "“NuMA is a mitotic adaptor protein that activates dynein and connects it to microtubule minus ends” (The Journal of Cell Biology, 2025)", "proteins": {"B1": {"name": "AF546- or AF647-labelled SNAP-tagged human NuMA N-terminal fragment (first 705 aa), NuMA^N-term (domain or fragment, UniProt Q14980-1 1-705, looked up)", "chain": "MTLHATRGAALLSWVNSLHVADPVEAVLQLQDCSIFIKIIDRIHGTEEGQQILKQPVSERLDFVCSFLQKNRKHPSSPECLVSAQKVLEGSELELAKMTMLLLYHSTMSSKSPRDWEQFEYKIQAELAVILKFVLDHEDGLNLNEDLENFLQKAPVPSTCSSTFPEELSPPSHQAKREIRFLELQKVASSSSGNNFLSGSPASPMGDILQTPQFQMRRLKKQLADERSNRDELELELAENRKLLTEKDAQIAMMQQRIDRLALLNEKQAASPLEPKELEELRDKNESLTMRLHETLKQCQDLKTEKSQMDRKINQLSEENGDLSFKLREFASHLQQLQDALNELTEEHSKATQEWLEKQAQLEKELSAALQDKKCLEEKNEILQGKLSQLEEHLSQLQDNPPQEKGEVLGDVLQLETLKQEAATLAANNTQLQARVEMLETERGQQEAKLLAERGHFEEEKQQLSSLITDLQSSISNLSQAKEELEQASQAHGARLTAQVASLTSELTTLNATIQQQDQELAGLKQQAKEKQAQLAQTLQQQEQASQGLRHQVEQLSSSLKQKEQQLKEVAEKQEATRQDHAQQLATAAEEREASLRERDAALKQLEALEKEKAAKLEILQQQLQVANEARDSAQTSVTQAQREKAELSRKVEELQACVETARQEQHEAQAQVAELELQLRSEQQKATEKERVAQEKDQLQEQLQ", "modifications": "SNAP-tag labelled with SNAP-Surface Alexa Fluor 546 or SNAP-Surface Alexa Fluor 647", "notes": "nuclear mitotic apparatus protein (NuMA), human, isoform 1 (NM_006185), first 705 aa; two stop codons inserted after aa 705; codon-optimised for S. frugiperda; A PreScission site lies between the SNAP-tag and NuMA; Dimeric by mass photometry; the construct described is SNAP-tagged; also called AF546-NuMA^N-term; AF647-NuMA^N-term; source: Sf21 insect cells (baculovirus), purified (StrepTrap, TEV …)"}, "B2": {"name": "mScarlet-tagged human NuMA C-terminal fragment aa 1560-2115, mScarlet-NuMA^(C-term L) (domain or fragment, UniProt Q14980-1 1560-2115, looked up)", "chain": "TSDQASKVQQQKLKAVQAQGGESQQEAQRLQAQLNELQAQLSQKEQAAEHYKLQMEKAKTHYDAKKQQNQELQEQLRSLEQLQKENKELRAEAERLGHELQQAGLKTKEAEQTCRHLTAQVRSLEAQVAHADQQLRDLGKFQVATDALKSREPQAKPQLDLSIDSLDLSCEEGTPLSITSKLPRTQPDGTSVPGEPASPISQRLPPKVESLESLYFTPIPARSQAPLESSLDSLGDVFLDSGRKTRSARRRTTQIINITMAKKLDVEEPDSANSSFYSTRSAPASQASLRATSSTQSLARLGSPDYGNSALLSLPGYRPTTRSSARRSQAGVSSGAPPGRNSFYMGTCQDEPEQLDDWNRIAELQQRNRVCPPHLKTCYPLESRPSLSLGTITDEEMKTGDPQETLRRASMQPIQIAEGTGITTRQQRKRVSLEPHQGPGTPESKKATSCFPRPMTPRDRHEGRKQSTTEAQKKAAPASTKQADRRQSMAFSILNTPKKLGNSLLRRGASKKALSKASPNTRSGTRRSPRIATTTASAATAAAIGATPRAKGKAKHLE", "notes": "NuMA, human, isoform 1 (NM_006185), aa 1560-2115: part of the predicted coiled-coil and the entire C-terminal tail; Mixed population of monomers and dimers by mass photometry; source: Sf21 insect cells (baculovirus), purified (StrepTrap, TEV cleavage, SEC); not shown: Strep-tag II, N-terminal, cleaved; mScarlet, N-terminal, kept"}}, "target": "the molecule itself", "experiment": "mass photometry; TwoMP mass photometer; 5-20 nM protein in the respective TIRF microscopy assay buffer without methylcellulose; monomer to dimer", "data": [{"protein": "B1", "values": [{"measurement": "stoichiometry N", "value": 2}]}, {"protein": "B2", "values": [{"measurement": "stoichiometry N", "value": 2}]}]}
